In PMC5494602:

Target: Flag-TRAF3 (TNF receptor-associated factor 3, full length) (human (by the printed RefSeq NM_145725)) (UniProt Q13114)
Experiment: co-IP

Chain of UniProt Q13114 (Q13114 whole entry): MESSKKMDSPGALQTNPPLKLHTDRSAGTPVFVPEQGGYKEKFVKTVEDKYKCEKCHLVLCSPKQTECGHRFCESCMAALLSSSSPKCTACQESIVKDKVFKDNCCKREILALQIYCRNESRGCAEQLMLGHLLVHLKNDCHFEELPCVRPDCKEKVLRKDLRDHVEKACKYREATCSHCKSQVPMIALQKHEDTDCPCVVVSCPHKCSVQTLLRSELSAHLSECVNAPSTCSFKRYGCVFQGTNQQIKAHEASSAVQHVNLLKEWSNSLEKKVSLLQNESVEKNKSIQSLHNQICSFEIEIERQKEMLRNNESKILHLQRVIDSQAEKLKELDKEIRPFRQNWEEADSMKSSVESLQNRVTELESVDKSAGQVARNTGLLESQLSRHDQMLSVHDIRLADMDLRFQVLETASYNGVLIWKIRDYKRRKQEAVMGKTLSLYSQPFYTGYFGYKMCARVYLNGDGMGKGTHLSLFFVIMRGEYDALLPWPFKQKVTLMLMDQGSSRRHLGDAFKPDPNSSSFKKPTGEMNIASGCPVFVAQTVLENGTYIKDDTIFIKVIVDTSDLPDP

Substance	fold decrease of the MAVS-TRAF3 co-precipitate
HA-NS1 (wild-type NS1 of H5N1/HM) (natural protein)	8.5 fold
HA-NS1/126-225 (C-terminal effector domain fragment of H5N1/HM NS1) (domain or fragment)	4.6 fold
